{"source": "paper PMC10312502", "biological_target": "human 40S ribosomal subunit labelled with Cy3 on the N-terminus of uS19 (human) (UniProt P62841)", "test": "FRET or BRET"}
{"substance": "Bat-Hp-CoV Nsp1, fluorescently labelled (wild type) (natural protein)", "values": [{"measurement": "fold inhibition of eIF1A association with the 40S subunit", "value": "> 2", "unit": "fold"}, {"measurement": "koff", "value": "< 0.01", "unit": "s⁻¹"}, {"measurement": "persistence of the FRET signal", "value": "> 100", "unit": "s"}]}
